Laboratory results reported in the DeepSol protein solubility set.

Experiment: soluble on expression in E. coli; label from the status in PepcDB or PDB records

| Sequence | soluble on expression in E. coli |
| --- | --- |
| MAITEFDTSLPSIRQLQNLIKQAAPVEIKLVTGDAITGRVLWQDPTCVCIADENSRQTTIWKQAIAYLQPKG | soluble |
| MGSDKIHHHHHHMEITSKTYLSTILGNDLAAGFYPTPLTEGNHLIQLLQMESERAYACFDPCCGEGTILRSFADAVKQVGIQLDTYGVELDANRYNKAKEQLDVVIRSSFESMMISHDYFPLIFLNPPYNTELRTEKKKSEKMEFNFLKRAHHYLQDGGIMVYVIPYDRFARDEISYFLAKNYEEIGLMRFGDENEEFEQFKQCVFIGRKRAATKNDTYFNDRFANFCENMSELDFVREHVNTLAQMVNRKSWTIPTLRNQNKLIFTSRVDYKDAYEGVGKSEGILTLKKRLNRGNGYSLQAEKTAAERAKMPIASGQLGLLLITGVADGLLGEGDTLHAVRGSENVFFETSFEKLETTTKEVVLQKRRAKFIIATPTGEVKELV | not soluble |
| RTHIIGIDQTLVDIEAKVDDAFIEKYGLSKGHSLVIDNDKAEMLYNELKDNNMISNEFAGGTIGNTLHNYSVLADDKSTLLGVMSEDIHIGSYSYRYLCNTSSRMDLNYLQPVPGAIGRCFALISEDGERTFAISEGDMNQLRAESIPEKIFKNASALVLTAYLVRCKEGDPMPEATMKAIEYAKKYDVPVVLTMGTKFVVQDDPQYWRDFLNDHVTVVAMNEEEGEALTGATDPLEAANKTLEWVDLVLCTAGPVGLYMAGYTEDSAKRETSLPLLPGTIAEFNQFEFSRPAVKDSCENPIKVFSHISPYMGGPEKIKNTNGAGDGALSALLHDMAANHYHRNNVPNSSKHQHSFLTYSSFSQVCKYSNRVSFEVLAQHSPRLSRGLPEREDSLEEAYWE | soluble |
| MGSDKIHHHHHHMACGRMYHFNVFAYGVEEILREVSKKGTESDIRLYNRKEEDGVMTFIEPIKYPDKVSSLTDSIYPTDLFIINGENLDKYFAETVIALDLFGKTRGIIVASEDKQSTIRKLLKDTNIQPEFFSGRPMEIIDRIKAFKIERNEQDTLVVIDHYFKVKSVGTVILGFVLSGKIRKHQDLYLSGINREVQVRSIQVNDVDFDEAEAGTRVGVALKNVEVEELSRGMFLAEKPFEYTNQVKDSVVFHKSLKGRDTMSDPYISDLMNFVKCNPEGDAYTTRFKLPLLKDSFVMADQNGFPRVVGYSKVKR | not soluble |
| MEGFPVRVRVDVRFRDLDPLGHVNNAVFLSYMELARIRYFQRISPDWLEEGHFVVARMEVDYLRPILLGDEVFVGVRTVGLGRSSLRMEHLVTANGESAAKGLGVLVWLEGGRPAPLPEAIRERIRALEGRPL | soluble |
| TITLTENKRKSMEKLSVDGVISALAFDQRGALKRMMAQHQTKEPTVEQIEELKSLVSEELTPFASSILLDPEYGLPASRVRSEEAGLLLAYEKTGYDATTTSRLPDCLDVWSAKRIKEAGAEAVKFLLYYDIDGDQDVNEQKKAYIERIGSECRAEDIPFYLEILTYDEKIADNASPEFAKVKAHKVNEAMKVFSKERFGVDVLKVEVPVNMKFVEGFADGEVLFTKEEAAQAFRDQEASTDLPYIYLSAGVSAKLFQDTLVFAAESGAKFNGVLCGRATWAGSVKVYIEEGPQAAREWLRTEGFKNIDELNKVLDKTASPWTEKM | soluble |
| GSHMSAGIGESRTELLTWLNGLLNLNYKKIEECGTGAAYCQIMDSIYGDLPMNRVKFNATAEYEFQTNYKILQSCFSRHGIEKTVYVDKLIRCKFQDNLEFLQWLKKHWIRHKDESVYDPDARRKYR | soluble |
| MVRIIVDHSLILLYSLSAFEESKYISSEEQMQISEYINVDDKIIQRWFEIRRAPTQESWEPEVILPEAIAIFEKEFTTNPNPCSHTLEELRMKTHVQVDSINKWFDERRCAAEQNIKSDSEGSEASFSLCSSWGDTDKELKVDLKMA | not soluble |
| MAQVGETEVVAGNVRDIVNRLSRDMTNRNPFTVHQQVERRAPPPQPQAQIYVATYAYSSKQDDELSFVVGDLIELISDVEDGWSKGKLKSTGAVGMFPTNFVTLKPTPSTSAAAVAPAASASTSAGSAARTPAKSIGSEVVMRSEPKAIDRTPSTIISDPAPVLKALETKFSSTFASSAASASTDAETTKTKEMARVKFVYNPQHDDELALKEIDMLINITNKNCGDAGWFEGELHGKKGLFPDNFVELVQVPLGTESGARHGSISRQATLTFVSHKPPPVNPPQPAVPPKPAKISVVRRGFIEKIEKKMFHFISGNN | soluble |
| MKPVKVGICGLGTVGGGTFNVLQRNAEEIARRAGRGIEVAQIAVRTPNPNCQIAGTPTTSDVFAVATNPEIDIVVELIGGYTIARDLVLKAIEHGKHVVTANKALIAVHGNEIFAKAREKGVIVAFEAAVAGGIPVIKAIREGLSANRINWVAGIINGTGNFILTEMREKGRTFPDVLAEAQALGYAEADPTFDVEGIDAAHKLTILASIAFGIPLQFDKAYTEGITKLTTADVNYAEALGYRIKHLGVARSTAQGIELRVHPTLIPADRLIANVNGVMNAVMVNGDASGSTLFYGAGAGMEPTASSVVADLVDVVRAMTSDPENRVPHLAFQPDSLSAHPILPIEACESAYYLRIQAKDHPGVLAQVASILSERGINIESIMQKEVEEHDGLVPMILLTHRVVEQRINDAIQALEALQDVVGPVVRIRVEHLN | not soluble |
| MAHHHHHHMIGSFRIIRLPRTASSLRSLNGGQRSPHDDVVCGRQPQGLEGGRKGESVDGGIRPSFTRVGQLTDTYRTRRAGWLCQRDDRWTERRPFQPAGIFLEGGEEAGRVDLRLTDMQRIYDVGPISAENERFAASTLLYATDEVRSLLVEKEWIKLYCLHGVAAADDECNIAFVDLTEKLEDVKRVLVAWKEKDA | not soluble |
| MLNPLRALTLGGLLLFSTLGHAAPAAPDALRIGYQKGSVSMVLAKSHQLLEQRYPQTHISWIEFPAGPQMLEALNVGSIDIGSTGDIPPIFAQAAGADLVYIGAEPPKPKAEVILVAQGSPIHNVAELKGKKVAFQKGSSSHNLLLRALQLAGLKFSDIQPVYLAPADARAAFQQGNVDAWAIWDPYYSAALLQGGARVLTDGTDLKQTGSFYLASRPYAERNGAFIEGVLDTFTQADALTHSQRAQSITLLAKTMGLPEAVIASYLDHRPPTAVTPVSAETAARQQQTADLFYENKLVPKKVDIRARIWQPTATQGAKS | not soluble |
| QVRQSPQSLTVWEGETTILNCSYEDSTFDYFPWYRQFPGKSPALLIAISLVSNKKEDGRFTIFFNKREKKLSLHITDSQPGDSATYFCAATGSFNKLTFGAGTRLAVSPY | soluble |
| MPKRKTGYEEMLEDVIETLKQSPEEVNKALETSGKVVEAANDLTKDELALIAAYVKADLKEFSESYEDSKSGPFYLTVADSIWQGLLEITDRTKVEWVELFDDLEHQGLYEAGEVIGLGTLVCDECGHKTTYNHPIIIIPCIKCGHKGFSRQSLKP | not soluble |
| MGKKAHGGKMKPEIDENGTLLVPPPRTIANQDHFHRLNYLYQISAYQTRARQKARTDAHTPLARNYIKSMDLISKKTKTSLLPTIKRTICKKCHRLLWTPKKLEITSDGALSVMCGCGTVKRFNIGADPNYRTYSEREGNLLNS | soluble |
| MGHHHHHHSHMFGGDTLYELRCSLQLAETEREGGFSPHISPFTAVNDLGHLLGRAGFNTLTVDTDEIQVNYPGMFELMEDLQGMGESNCAWNRKALLHRDTMLAAAAVYREMYRNEDGSVPATYQIYYMIGWKYHESQARPAERGSATVSFGELGKINNLMPPGKKSQ | not soluble |
| MTQDDFFDLTPVEDFDSYDPLADTEDEEFDLEAPAESGMFLVEPGEFPTVDELASQAEALQQAPAAQRIATLFDHMERSRKILLGILEMCDGQVQPNELVISRIEKLKANNKSVYTPDNMCMMLVRAGALRRVTQDGTDYEDIEDTLEPKRVVIDGVEYLEPVQAPQICWLTTPEGSQVVAADQPRARLRELLENEPQYRHVFRTVLEMCAPDGGTTQKALSAALDNDPALMHPRMYAMRFAERLAQNDALEWRDNAWRITDIGSEGLDIIAELDAAEQADD | not soluble |
| MGSDKIHHHHHHMRTMVAVRLRNLVESDRERLLIWRNSPDVSAYMYSDHKIGHEEHDHWFDVARHDPRRRYWIIEADGEPVGLANLADIDLVHRRCAWAYYLASPKVRGLGVGSFVEFQIIEYVFNQLHLNKLWCEVLISNESVWRLHELYGFQREALFRQHVMKQGHEVDVIGLGLLASDWAARRDAMAERLCAKGYTIPDLTCRAA | not soluble |
| MAHHHHHHMNDIYARRLAQATMFHQLMRCHGTLWAATQVTKEQMDYNFIREEFMRVNGRRAMPLLLGAAANENLHQLHLSHLSEHCAWGESARALAVQRQTPLSQRVAALGRMAETIHQVKTASTVQNLFNEQISCMEGISSFEEEPLIEGE | not soluble |
| MGSDKIHHHHHHMKLMIGKLFWDTGASMPCYPSLENDMICDMLVVGSGEAGAQIAYSLVKMGMRVTLIEKNMISCGSTAANTGLLQFLHDKSLTSLIHTFGEEKGVRAYKLCYEALRTMEKVVPTLDIDPQFIPRNSLYYASKSEDVSFLQEEYKTLQNYEFPVEYFTASDIKERYPFTRQAALYTHGDAEVNPYLLAHSLLHKANQMGANIYEHTEAIHIKKRQNDLICYTKTGNQIVAKNIIMATGYEALFGKKEKNTTVETSYAVVTNKVDSFEGWHEQSLIWETARPYLYFRTYENRIIVGGLDEAMKIQTIGDTKLLHKRDVLINIIKEMFPQYKDIQAEYYWAAAFGGSHDGLPILKEDNKIHNLFYALPYGGNGTVYGMVFAKIFEQLFTNKESEDFSLFNR | not soluble |
| MGIYQWRDKKKPSGGKRRYYYKVKRKYAAGRPPTYTTLSAAEEEERKPVRARGGSYKIKAKKVAFAVVSNPKTGEARKARILRIVETPAHREYARRGIIVKGAVIDTTLGRAVVTSRPGQEGVVNAVLLEEQGQKQLEHHHHHH | soluble |
| MRNKVLIVLAVIAGALILKSCGEPYSGAKETVGEFMEEIAEGEGRDAIKYLYPAYRDELAKNFKLPVQFTEMKPSEVLACVLSTMGRNIDEVEIKKAIAVNPNTANVVVKVEDKEGIEKFFSFTVVKEGDKWYIAKIEKYIPQVGR | not soluble |
| MGSDKIHHHHHHMGLTLRQIEVIRAVMIAGTIAGAARLMNVAQPGVSRTMKHIESALGIKLFVKKAGRYVPTDEARDIFAQLQEVHRKVDDLQSSIGQLERGRGVELALGSVPSIANAMMPQAIAGLMRRYPDIRINFDILRIEEAIDYLLLGKGELVAMSYHLTHPSITFEPLSKGHLVCIAAREHPIAGRSRISAREIAEHPLIGIDPRDPYGAIMAGIFEREKLEYRTPIRARFGTTVCALVKRNLGIAVIDAFTVGGMADQGLAVIPISEDTEFQTYVAYRADAALSSYAERLVTTLRRVMDDSTGRSRGGRDA | not soluble |
| NDRFSWDTQFNISTIKNKLTSLIDEKPIPVGNHVLQVGQPIGSFYMYKMDGIYQDNQEVPEKLYAKGVRAGDIKYADKDNDGDLTPADKEIVGKPLPDFFGGLTNRFRYGNFDLTIFNTFSVGNDVYATGMGGIDAVGHNNYGMRKDIAANRWTGPGTNNSIPRAMISTHNTQASTYLLHDGSYFKFKDVTLGYTLPSNLTQKLNISNMRVYLSAQNLWTISSYPGYDPEVSYSVNNSKTMGEDAMTVPQLRTFVCGFNLTF | not soluble |
| MSLKRADLSIVPLTFKHPIVTAHAVLSVRRTLILRLETVDGVVGYGEGAAFETPWYTEETTQSMIDTSKLILNLLKGMTVTTDVFPNLVSSIIGQRMAKAMWESALWEIEATRANKSLKSFISAGDSVSCGRTIGIGLLNQTMKSIETALADGFERIKLKASPNELLPALREIRAVFPDAPLMIDLNGSASDQPMEWFEQLDTYRLLMIEQPYPSRQFTKSAALQAKLTTPICLDESITSYDDVETMAQLGAGKIVNIKPARVGGLSEAFHIRKHGTPYWVGGMYESGIGRYHTLLFASLSGASFPADMSGTSAYFEQDLLDIPLEVENGKLTLPDSVQPDWNVIERLREEVITLQTEGHHHHHH | soluble |
